In article PMC7481404:

Target: PARK2 (UniProt O60260)
Test: co-IP of Flag-PARK2 and Myc-BCL-2
Conditions: reference: wild type Myc-BCL-2; sites S70

- binding against the reference: lost
Substance: BCL-2 (from UniProt P10415) S70A
